From the supplement of paper PMC5998384

Legend:
[1] = system: HeLa Kyoto; assay: thermal stability score vs G1/S (z-score of summed log2 fold changes over temperatures); higher = more thermally stable than in G1/S
[2] = system: HeLa Kyoto; assay: solubility in G1/S (NP-40 vs SDS abundance) (log2 ratio); higher = more soluble; conditions: cell cycle stage: G1/S
[3] = system: HeLa Kyoto; assay: melting temperature (median over replicates), in situ; higher = more thermally stable
[4] = system: HeLa Kyoto; assay: solubility change mitosis vs G1/S (difference of NP-40 vs SDS log2 ratios) (log2 ratio difference); higher = more soluble in mitosis
[5] = cell cycle stage: early G1 (4.5 h after nocodazole release)
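For melting temperature (median over replicates), in situ in this document: HeLa Kyoto cells synchronized by double thymidine or nocodazole block, proteins quantified by TMT10plex mass spectrometry, three independent biological replicates.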
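For solubility change mitosis vs G1/S (difference of NP-40 vs SDS log2 ratios) in this document: synchronized HeLa Kyoto cells (double thymidine block for G1/S, nocodazole release for mitosis), protein amounts in NP-40 versus SDS lysates quantified by mass spectrometry, three biological replicates.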
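For solubility in G1/S (NP-40 vs SDS abundance) in this document: HeLa Kyoto cells arrested at G1/S by double thymidine block, proteins quantified by TMT10plex mass spectrometry in mild NP-40 versus SDS extracts, three biological replicates.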
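For thermal stability score vs G1/S (z-score of summed log2 fold changes over temperatures) in this document: synchronized HeLa Kyoto cells, proteins quantified by TMT10plex mass spectrometry, three biological replicates, mitosis taken 0.5 h after nocodazole release, G1/S directly after double thymidine block.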

Sequence	thermal stability score [1, 5]	thermal stability score ([1]; cell cycle stage: mitosis)	solubility in G1/S (log2) [2]	melting temperature ([3]; cell cycle stage: G1/S)	melting temperature ([3]; cell cycle stage: mitosis)	solubility change mitosis (log2) [4]
MNSIKNVPARVLSRRPGHSLEAEREQFDKTQAISISKAINTQEAPVKEKHARRIILGTHHEKGAFTFWSYAIGLPLPSSSILSWKFCHVLHKVLRDGHPNVLHDCQRYRSNIREIGDLWGHLHDRYGQLVNVYTKLLLTKISFHLKHPQFPAGLEVTDEVLEKAAGTDVNNIFQLTVEMFDYMDCELKLSESVFRQLNTAIAVSQMSSGQCRLAPLIQVIQDCSHLYHYTVKLLFKLHSCLPADTLQGHRDRFHEQFHSLRNFFRRASDMLYFKRLIQIPRLPEGPPNFLRASALAEHIKPVVVIPEEAPEDEEPENLIEISTGPPAGEPVVVADLFDQTFGPPNGSVKDDRDLQIESLKREVEMLRSELEKIKLEAQRYIAQLKSQVNALEGELEEQRKQKQKALVDNEQLRHELAQLRAAQLEGERSQGLREEAERKASATEARYNKLKEKHSELVHVHAELLRKNADTAKQLTVTQQSQEEVARVKEQLAFQVEQVKRESELKLEEKSDQLEKLKRELEAKAGELARAQEALSHTEQSKSELSSRLDTLSAEKDALSGAVRQREADLLAAQSLVRETEAALSREQQRSSQEQGELQGRLAERESQEQGLRQRLLDEQFAVLRGAAAEAAGILQDAVSKLDDPLHLRCTSSPDYLVSRAQEALDAVSTLEEGHAQYLTSLADASALVAALTRFSHLAADTIINGGATSHLAPTDPADRLIDTCRECGARALELMGQLQDQQALRHMQASLVRTPLQGILQLGQELKPKSLDVRQEELGAVVDKEMAATSAAIEDAVRRIEDMMNQARHASSGVKLEVNERILNSCTDLMKAIRLLVTTSTSLQKEIVESGRGAATQQEFYAKNSRWTEGLISASKAVGWGATQLVEAADKVVLHTGKYEELIVCSHEIAASTAQLVAASKVKANKHSPHLSRLQECSRTVNERAANVVASTKSGQEQIEDRDTMDFSGLSLIKLKKQEMETQVRVLELEKTLEAERMRLGELRKQHYVLAGASGSPGEEVAIRPSTAPRSVTTKKPPLAQKPSVAPRQDHQLDKKDGIYPAQLVNY [HIP1R]	-0.263	0.371	-0.0581	50 °C	49.5 °C	-0.0177
MNSMKTEENKSFSAMEDDQRTRPEVSKDTVMKQTHADTPVDHCLSGIRKCSSTFKLKSEVNKHETALEMQNPNLNNKECCFTFTLNGNSRKLDRSVFTAYGKPSESIYSALSANDYFSERIKNQFNKNIIVYEEKTIDGHINLGMPLKCLPSDSHFKITFGQRKSSKEDGHILRQCENPNMECILFHVVAIGRTRKKIVKINELHEKGSKLCIYALKGETIEGALCKDGRFRSDIGEFEWKLKEGHKKIYGKQSMVDEVSGKVLEMDISKKKALQQKDIHKKIKQNESATDEINHQSLIQSKKKVHKPKKDGETKDVEHSREQILPPQDLSHYIKDKTRQTIPRIRNYYFCSLPRKYRQINSQVRRRPHLGRRYAINLDVQKEAINLLKNYQTLNEAIMHQYPNFKEEAQWVRKYFREEQKRMNLSPAKQFNIYKKDFGKMTANSVSVATCEQLTYYSKSVGFMQWDNNGNTGNATCFVFNGGYIFTCRHVVHLMVGKNTHPSLWPDIISKCAKVTFTYTEFCPTPDNWFSIEPWLKVSNENLDYAILKLKENGNAFPPGLWRQISPQPSTGLIYLIGHPEGQIKKIDGCTVIPLNERLKKYPNDCQDGLVDLYDTTSNVYCMFTQRSFLSEVWNTHTLSYDTCFSDGSSGSPVFNASGKLVALHTFGLFYQRGFNVHALIEFGYSMDSILCDIKKTNESLYKSLNDEKLETYDEEKGKQESSLQDHQIEPMEC [FAM111B]	2.69	4.09	-0.274	46.9 °C	50.3 °C	-7.96e-05
MNTADQARVGPADDGPAPSGEEEGEGGGEAGGKEPAADAAPGPSAAFRLMVTRREPAVKLQYAVSGLEPLAWSEDHRVSVSTARSIAVLELICDVHNPGQDLVIHRTSVPAPLNSCLLKVGSKTEVAECKEKFAASKDPTVSQTFMLDRVFNPEGKALPPMRGFKYTSWSPMGCDANGRCLLAALTMDNRLTIQANLNRLQWVQLVDLTEIYGERLYETSYRLSKNEAPEGNLGDFAEFQRRHSMQTPVRMEWSGICTTQQVKHNNECRDVGSVLLAVLFENGNIAVWQFQLPFVGKESISSCNTIESGITSPSVLFWWEYEHNNRKMSGLIVGSAFGPIKILPVNLKAVKGYFTLRQPVILWKEMDQLPVHSIKCVPLYHPYQKCSCSLVVAARGSYVFWCLLLISKAGLNVHNSHVTGLHSLPIVSMTADKQNGTVYTCSSDGKVRQLIPIFTDVALKFEHQLIKLSDVFGSVRTHGIAVSPCGAYLAIITTEGMINGLHPVNKNYQVQFVTLKTFEEAAAQLLESSVQNLFKQVDLIDLVRWKILKDKHIPQFLQEALEKKIESSGVTYFWRFKLFLLRILYQSMQKTPSEALWKPTHEDSKILLVDSPGMGNADDEQQEEGTSSKQVVKQGLQERSKEGDVEEPTDDSLPTTGDAGGREPMEEKLLEIQGKIEAVEMHLTREHMKRVLGEVYLHTWITENTSIPTRGLCNFLMSDEEYDDRTARVLIGHISKKMNKQTFPEHCSLCKEILPFTDRKQAVCSNGHIWLRCFLTYQSCQSLIYRRCLLHDSIARHPAPEDPDWIKRLLQSPCPFCDSPVF [GTF3C4]	1.42	3.08	-0.0178	49.4 °C	49.9 °C	-0.0904
MPAESGKRFKPSKYVPVSAAAIFLVGATTLFFAFTCPGLSLYVSPAVPIYNAIMFLFVLANFSMATFMDPGIFPRAEEDEDKEDDFRAPLYKTVEIKGIQVRMKWCATCRFYRPPRCSHCSVCDNCVEEFDHHCPWVNNCIGRRNYRYFFLFLLSLTAHIMGVFGFGLLYVLYHIEELSGVRTAVTMAVMCVAGLFFIPVAGLTGFHVVLVARGRTTNEQVTGKFRGGVNPFTNGCCNNVSRVLCSSPAPRYLGRPKKEKTIVIRPPFLRPEVSDGQITVKIMDNGIQGELRRTKSKGSLEITESQSADAEPPPPPKPDLSRYTGLRTHLGLATNEDSSLLAKDSPPTPTMYKYRPGYSSSSTSAAMPHSSSAKLSRGDSLKEPTSIAESSRHPSYRSEPSLEPESFRSPTFGKSFHFDPLSSGSRSSSLKSAQGTGFELGQLQSIRSEGTTSTSYKSLANQTRNGSLSYDSLLTPSDSPDFESVQAGPEPDPPLGYTSPFLSARLAQQREAERHPRLVPTGPTHREPSPVRYDNLSRHIVASLQEREKLLRQSPPLPGREEEPGLGDSGIQSTPGSGHAPRTSSSSDDSKRSPLGKTPLGRPAVPRFGKPDGLRGRGVGSPEPGPTAPYLGRSMSYSSQKAQPGVSETEEVALQPLLTPKDEVQLKTTYSKSNGQPKSLGSASPGPGQPPLSSPTRGGVKKVSGVGGTTYEISV [ZDHHC5]	-2.84	1.5	-0.172	59.1 °C	62.7 °C	0.124
MPAGPVQAVPPPPPVPTEPKQPTEEEASSKEDSAPSKPVVGIIYPPPEVRNIVDKTASFVARNGPEFEARIRQNEINNPKFNFLNPNDPYHAYYRHKVSEFKEGKAQEPSAAIPKVMQQQQQTTQQQLPQKVQAQVIQETIVPKEPPPEFEFIADPPSISAFDLDVVKLTAQFVARNGRQFLTQLMQKEQRNYQFDFLRPQHSLFNYFTKLVEQYTKILIPPKGLFSKLKKEAENPREVLDQVCYRVEWAKFQERERKKEEEEKEKERVAYAQIDWHDFVVVETVDFQPNEQGNFPPPTTPEELGARILIQERYEKFGESEEVEMEVESDEEDDKQEKAEEPPSQLDQDTQVQDMDEGSDDEEEGQKVPPPPETPMPPPLPPTPDQVIVRKDYDPKASKPLPPAPAPDEYLVSPITGEKIPASKMQEHMRIGLLDPRWLEQRDRSIREKQSDDEVYAPGLDIESSLKQLAERRTDIFGVEETAIGKKIGEEEIQKPEEKVTWDGHSGSMARTQQAAQANITLQEQIEAIHKAKGLVPEDDTKEKIGPSKPNEIPQQPPPPSSATNIPSSAPPITSVPRPPTMPPPVRTTVVSAVPVMPRPPMASVVRLPPGSVIAPMPPIIHAPRINVVPMPPSAPPIMAPRPPPMIVPTAFVPAPPVAPVPAPAPMPPVHPPPPMEDEPTSKKLKTEDSLMPEEEFLRRNKGPVSIKVQVPNMQDKTEWKLNGQVLVFTLPLTDQVSVIKVKIHEATGMPAGKQKLQYEGIFIKDSNSLAYYNMANGAVIHLALKERGGRKK [SF3A1]	-0.95	1.92	-0.0723	49.8 °C	50.2 °C	0.18
MPALPLDQLQITHKDPKTGKLRTSPALHPEQKADRYFVLYKPPPKDNIPALVEEYLERATFVANDLDWLLALPHDKFWCQVIFDETLQKCLDSYLRYVPRKFDEGVASAPEVVDMQKRLHRSVFLTFLRMSTHKESKDHFISPSAFGEILYNNFLFDIPKILDLCVLFGKGNSPLLQKMIGNIFTQQPSYYSDLDETLPTILQVFSNILQHCGLQGDGANTTPQKLEERGRLTPSDMPLLELKDIVLYLCDTCTTLWAFLDIFPLACQTFQKHDFCYRLASFYEAAIPEMESAIKKRRLEDSKLLGDLWQRLSHSRKKLMEIFHIILNQICLLPILESSCDNIQGFIEEFLQIFSSLLQEKRFLRDYDALFPVAEDISLLQQASSVLDETRTAYILQAVESAWEGVDRRKATDAKDPSVIEEPNGEPNGVTVTAEAVSQASSHPENSEEEECMGAAAAVGPAMCGVELDSLISQVKDLLPDLGEGFILACLEYYHYDPEQVINNILEERLAPTLSQLDRNLDREMKPDPTPLLTSRHNVFQNDEFDVFSRDSVDLSRVHKGKSTRKEENTRSLLNDKRAVAAQRQRYEQYSVVVEEVPLQPGESLPYHSVYYEDEYDDTYDGNQVGANDADSDDELISRRPFTIPQVLRTKVPREGQEEDDDDEEDDADEEAPKPDHFVQDPAVLREKAEARRMAFLAKKGYRHDSSTAVAGSPRGHGQSRETTQERRKKEANKATRANHNRRTMADRKRSKGMIPS [ASCC2]	0.236	1.02	-0.248	52.1 °C	49.5 °C	0.0692
MPALSTGSGSDTGLYELLAALPAQLQPHVDSQEDLTFLWDMFGEKSLHSLVKIHEKLHYYEKQSPVPILHGAAALADDLAEELQNKPLNSEIRELLKLLSKPNVKALLSVHDTVAQKNYDPVLPPMPEDIDDEEDSVKIIRLVKNREPLGATIKKDEQTGAIIVARIMRGGAADRSGLIHVGDELREVNGIPVEDKRPEEIIQILAQSQGAITFKIIPGSKEETPSKEGKMFIKALFDYNPNEDKAIPCKEAGLSFKKGDILQIMSQDDATWWQAKHEADANPRAGLIPSKHFQERRLALRRPEILVQPLKVSNRKSSGFRKSFRLSRKDKKTNKSMYECKKSDQYDTADVPTYEEVTPYRRQTNEKYRLVVLVGPVGVGLNELKRKLLISDTQHYGVTVPHTTRARRSQESDGVEYIFISKHLFETDVQNNKFIEYGEYKNNYYGTSIDSVRSVLAKNKVCLLDVQPHTVKHLRTLEFKPYVIFIKPPSIERLRETRKNAKIISSRDDQGAAKPFTEEDFQEMIKSAQIMESQYGHLFDKIIINDDLTVAFNELKTTFDKLETETHWVPVSWLHS [MPP7]	0.55	1.76	-0.0584	47.8 °C	48.5 °C	0.00867
MPAPTQLFFPLIRNCELSRIYGTACYCHHKHLCCSSSYIPQSRLRYTPHPAYATFCRPKENWWQYTQGRRYASTPQKFYLTPPQVNSILKANEYSFKVPEFDGKNVSSILGFDSNQLPANAPIEDRRSAATCLQTRGMLLGVFDGHAGCACSQAVSERLFYYIAVSLLPHETLLEIENAVESGRALLPILQWHKHPNDYFSKEASKLYFNSLRTYWQELIDLNTGESTDIDVKEALINAFKRLDNDISLEAQVGDPNSFLNYLVLRVAFSGATACVAHVDGVDLHVANTGDSRAMLGVQEEDGSWSAVTLSNDHNAQNERELERLKLEHPKSEAKSVVKQDRLLGLLMPFRAFGDVKFKWSIDLQKRVIESGPDQLNDNEYTKFIPPNYHTPPYLTAEPEVTYHRLRPQDKFLVLATDGLWETMHRQDVVRIVGEYLTGMHHQQPIAVGGYKVTLGQMHGLLTERRTKMSSVFEDQNAATHLIRHAVGNNEFGTVDHERLSKMLSLPEELARMYRDDITIIVVQFNSHVVGAYQNQE [PDP1]	0.767	1.07	0.103	52.7 °C	51.6 °C	-0.0758
